From paper PMC10864358, “Structural and mechanistic characterization of bifunctional heparan sulfate N-deacetylase-N-sulfotransferase 1” (Nature Communications, 2024)

B1: nAb7 (VHH)
VHH: QVQLVESGGGSVQAGGSLRLSCAASGFNVDDYAIGWFRQSPGKEREGVSCIGGDGTTYYENSVKGRFTVSSDKRDNTVYLQMNNLRPEDTAIYFCAADRSKYCVGKYFSTPSQYDFWGRGTHVTVSS
notes: llama VHH from an NDST1-immunized library, selected by phage display; Long CDR3 loop R98-F116; also called anti-NDST1 nanobody 7; source: E. coli WK6, periplasmic extract, purified (HisTrap, SEC)
B2: nAb6 (VHH)
VHH: QVQLVESGGDLVQPGGSLRLSCAASKTIFVISDMGWYRQAPGKQRELVAMITSGGTTNYADSVKGRFTISRDNTQNTVWLQMNSLKPEDTAVYYCYARVERWRPTDSWGQGTQVTVSS
notes: llama VHH from an NDST1-immunized library, selected by phage display; also called anti-NDST1 nanobody 6; source: E. coli WK6, periplasmic extract, purified (HisTrap, SEC)
B3: nAb1 (VHH)
VHH: QVQLVESGGGLVQAGGSLRLSCAASDRTFTTYAMAWFRRAPPGKEREFVASIRWDGFGTYYTDSVKGRFTISRDSAKNEAYLQMNSLRPEDTGVYYCAAGLLFGNTKGYDHWGQGTQVTVSS
notes: llama VHH from an NDST1-immunized library, selected by phage display; also called anti-NDST1 nanobody 1; source: E. coli WK6, periplasmic extract, purified (HisTrap, SEC)
B4: nAb13 (VHH)
VHH: QVQLVESGGGLVQSGGSLRLSCTASRRASSTIGWFRQAPGKEREFVAGINWSLETATYQDSIKDRFTISRDNANNTVYLQMNSLKPEDTAVYYCAASPYRVMGDTTLYPYWGQGTQVTVSS
notes: in PDB 8CHS nAb13 is modeled only as an all-Calpha chain derived from the nAb7 structure; llama VHH from an NDST1-immunized library, selected by phage display; also called anti-NDST1 nanobody 13; source: E. coli WK6, periplasmic extract, purified (HisTrap, SEC)
B5: nAb5 (VHH)
VHH: QVQLVESGGGLVQAGGSLRLSCAASGRTFSSYVMGWFRQAPGKEREFVAAISWSGGTTDYAGSVKGRFTISRDNDRKTMYLEMNDLKPEDTALYYCNFKETWPRTGDYWGPGTQVTVSS
notes: llama VHH from an NDST1-immunized library, selected by phage display; also called anti-NDST1 nanobody 5; source: E. coli WK6, periplasmic extract, purified (HisTrap, SEC)

What was measured:
[1] = target: T1, solubilized recombinant NDST1 (residues 79-882), bifunctional heparan sulfate … (human, UniProt P52848); experiment: cell-based or functional assay
[2] = target: T1, solubilized recombinant NDST1 (residues …); experiment: cell-based or functional assay; remark: listed apart in the source
[3] = target: T1, solubilized recombinant NDST1 (residues …); experiment: differential scanning fluorimetry; NDST1 (1 µg) in 20 µL PBS pH 7.4 with 20X Sypro Orange, with 10.8 µM nAb; 25 to 95 °C; conditions: both partners purified
[4] = target: T2, biotinylated C-terminal Avitagged NDST1 (Homo sapiens, UniProt P52848, biotin on the C-terminal Avitag (BirA biotin-protein ligase)); experiment: BLI; biotinylated NDST1 immobilised on Octet SA biosensors, nanobodies in PBS-T, 25 °C, 1000 rpm; steady-state responses fitted to a 1:1 model; conditions: both partners purified
T2 construct: human N-deacetylase-N-sulfotransferase 1 (NDST1) with a C-terminal Avitag, made by PCR with tailed primers and subcloned into pOMNIBac; also called biotinylated NDST1; source: insect cells (baculovirus, pOMNIBac), purified; biotinylated with the BirA kit, then a final round of SEC; not shown: Avitag, C-terminal, kept

[5] = target: T2, biotinylated C-terminal Avitagged NDST1; experiment: SPR; biotinylated NDST1 immobilised on a BiotinCAP sensor chip (Biacore T200), nanobody titrated from 10 µM, 25 °C, 20 mM MES pH 6.5, 100 mM NaCl, 0.05% Tween-20; steady-state responses fitted to a 1:1 model; conditions: both partners purified

T2 sequence (P52848 79-882): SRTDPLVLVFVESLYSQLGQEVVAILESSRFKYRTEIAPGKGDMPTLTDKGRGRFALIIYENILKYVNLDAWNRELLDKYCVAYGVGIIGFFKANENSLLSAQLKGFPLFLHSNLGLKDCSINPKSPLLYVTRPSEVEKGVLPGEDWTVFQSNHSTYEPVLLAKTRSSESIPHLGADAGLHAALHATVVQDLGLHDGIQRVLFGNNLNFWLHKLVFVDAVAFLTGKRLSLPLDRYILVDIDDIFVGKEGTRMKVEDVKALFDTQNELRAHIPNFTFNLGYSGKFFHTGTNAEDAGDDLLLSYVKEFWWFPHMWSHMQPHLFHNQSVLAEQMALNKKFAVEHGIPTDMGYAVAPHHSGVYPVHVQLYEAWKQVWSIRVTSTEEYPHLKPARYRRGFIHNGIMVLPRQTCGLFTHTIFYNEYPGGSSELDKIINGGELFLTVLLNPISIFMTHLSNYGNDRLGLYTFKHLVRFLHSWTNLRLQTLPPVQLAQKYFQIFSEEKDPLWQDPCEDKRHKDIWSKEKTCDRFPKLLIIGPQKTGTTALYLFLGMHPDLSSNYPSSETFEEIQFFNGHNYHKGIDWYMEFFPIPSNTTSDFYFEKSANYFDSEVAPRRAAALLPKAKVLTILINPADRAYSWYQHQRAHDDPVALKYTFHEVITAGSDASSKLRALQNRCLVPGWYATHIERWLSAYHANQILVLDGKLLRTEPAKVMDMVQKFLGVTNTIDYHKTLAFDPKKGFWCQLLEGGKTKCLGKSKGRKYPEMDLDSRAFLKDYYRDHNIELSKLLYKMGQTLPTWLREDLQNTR
T1 sequence (P52848 79-882): as above

Row | Binder | fold decrease in kcat/KM of NDST1 with respect to K5 with 30 µM nAb7, against NDST1 alone (0.06 vs 0.18 min^-1 mg^-1 mL) [1] [fold] | KI of inhibition of NDST1 activity (fluorometric coupled enzyme assay with Sult1a1-K65E-R68G, K5 substrate; Morrison equation) [2] [nM] | stabilization of NDST1 thermal denaturation with 10.8 µM nAb [3] [°C] | Kd [4] [nM] | Kd [5] [nM] | fold enhancement of NDST1 activity in the coupled enzyme assay [1] [fold] | kcat of NDST1 with respect to K5 with 30 µM nAb13, against NDST1 alone (0.26 min^-1 vs 0.14 min^-1) [1] [%] | EC50 of enhancement of NDST1 activity (fluorometric coupled enzyme assay with Sult1a1-K65E-R68G, K5 substrate) [2] [nM]
1 | B1 | ~3 | 240 | ~4.4 | 120 | 220 | – | – | –
2 | B2 | – | – | – | 470 | 840 | – | – | –
3 | B3 | – | – | – | 2670 | 2370 | – | – | –
4 | B4 | – | – | ~1.9 | 240 | 530 | ~2 | ~86 | 450
5 | B5 | – | 3300 | ~2.6 | – | 570 | – | – | –
